Reference: the DeepSol protein solubility set

Assay: soluble on expression in E. coli; label from the status in PepcDB or PDB records
With “EPIVTVYVAYGGLDLIAEEFEKDTGIKMEYVSLSSGEALSRLKAEQSNPSADVWLGGGIDAFISAQNDGLLEAYKSPNAEEIDPLFVEENGYWIGVSLVTIGILENTDLMTEKGLPEPETWDDLITEDYSGELIASNPTVSGTAYFTICGILQMNGEEEGWNYLDKFYQNTPFLTKRGSGPGNLVTAGEYAYGVAPDPHTTLIANSELPVKSVFLDNVIWWPSPVSIVNGAKHPENAKIFVDWCLSKEGQEVLMQASPRVPVRGDI” the “soluble on expression in E. coli” value was “not soluble”. In the case of “MNKDLRPIIWNDSEKKLVLIDQRKLPNELVYFECKNYKDVCFAIKDMVVRGAPAIGVAAAYGMALAELNGEDMEKAYLELKKTRPTAVNLFWALEKIIAAKNSGKSLLDEAKLIHEEDIELCRKIGEIGEVLIDDFDTILTHCNAGALATSAYGTALSVIRFAHYNGKKINVLSDETRPRLQGAKLTCFELNYENIPVKAICDNTAGFMMSKGLVDKIIVGADRILSDYHVFNKIGTYSLAILAKYHNIPFYVAAPYSTFDFESKLEDIVIEERSESEVTHIDNVRIVAEGVSAYNFAFDCTPPELITGIITEKEIIYPNKLEHHHHHH”, the “soluble on expression in E. coli” value is reported as “not soluble”. For “MISDIRKDAEVRMEKCVEAFKTQISKVRTGRASPSLLDGIVVEYYGTPTPLRQLASVTVEDSRTLKINVFDRSMGPAVEKAIMASDLGLNPSSAGTDIRVPLPPLTEERRKDLTKIVRGEAEQARVAVRNVRRDANDKVKALLKDKAISEDDDRRSQEEVQKMTDAAIKKVDAALADKEAELMQF”, the “soluble on expression in E. coli” value was “not soluble”. For “MSALLEVTNLHKDFVTRSGFLRKQIQHAVKPVSFTLEAGQTIGFIGQNGSGKSTLARMLAGMVAPTGGEIRVNGELLEHKDYSTRCKLIRMIFQDPNTSLNPRLQIGTILEGPLKRNTSMTPEARMRRVKDTLQRVGLLPEHAYFYPQMLATGQKQRVCLARALILQPSIIIADEALNGLDMAMRSQILNLFLELQEEMGVSFVYVSQHIGVIKHITDKIIVMHEGDVVESGETHEVLADPQHPITQRMIESHFTKAPTFKY”, the “soluble on expression in E. coli” value was “not soluble”. In the case of “MVTITLYMNNNIEYISKIKKGEETSFRHFVNSYSKDLFYYAQCFVRSKETAEEVVSDVFLDVWRHREEIDEIKNIKAWLLTLTHNKAISYLRKAENSSEIASWEEIDDFQIIGNLQTPDEEMISKEEIAQINSLIQTLPPKCKVVFALAKIERLPYKEIADMLNISVKTINVHVAKALEIISNGLKK”, the “soluble on expression in E. coli” value is reported as “not soluble”. In the case of “MSNDFTQAQAPPWRYGFLNLMRRVDVQLCTVPAGNTWQPRMEKFRLGQTPALTFAPREIASVGWQEGRLHISLYSLVLWGPNGPLPLHYTELARNRTESRR”, the “soluble on expression in E. coli” value is reported as “not soluble”. For “MNIEEFTSGLAEKGISLSPRQLEQFELYYDMLVEWNEKINLTSITEKKEVYLKHFYDSITAAFYVDFNQVNTICDVGAGAGFPSLPIKICFPHLHVTIVDSLNKRITFLEKLSEALQLENTTFCHDRAETFGQRKDVRESYDIVTARAVARLSVLSELCLPLVKKNGLFVALKAASAEEELNAGKKAITTLGGELENIHSFKLPIEESDRNIMVIRKIKNTPKKYPRKPGTPNKSPIEG”, the “soluble on expression in E. coli” value was “soluble”. In the case of “MSLRESMRIELELQTDNFTVIPYNHQYYLASAIYNKIHSANPAYAKRLHNYQKFKFFTFSLLQIRKRVIRKEGIETIDGKAYLYISSPNNEFIENFVAGLLEDGKLRVGNVEFFVRKAKILPIPKKFNILKTISPIYLKTMIETEDGLKTYDLLPNNSKFYENLKNNLKKKYEAFYNEKCDMNFEFEVLKFRPKRMRIKNDIYCRCSEMVFKVWGDYDLIKFGYECGFGEKNSMGFGMVVNVEDKNQKNKKLKTKIEGHHHHHH”, the “soluble on expression in E. coli” value is reported as “soluble”. For “MGSSHHHHHHSSGRENLYFQGMRHKIRLIDFILLRFIEERMKVARDVAKEKKKTDSPIVIRDIEEQKIKEILDRTDLNPVRMRRIFEEIMKLAKEEEYRLLGISKTVAVLGPMGSFSDEMAMKLIGSRIPLKYCSTTDEIIEMVEKGEVDYGIVPIENSTYGTVIPVLDALLNHEVEVFGEAKLEIHHCLVAKKKLDLKEIKRIYSHPQAISQSLGFINTYLSHAEIRYTSSTSDAVNLLDDESAAIMSESAAKMYGLLILRRSIQDLKEKNITRFYIIRRKTGKMEGKYTSLFFGVQDRPGSLKAVLDIFASRGINLRKLESRPARTFLGDYVFFVEVEAPLKEEDIRDLERVTAFYKIIGVFDEVEELDVFK”, the “soluble on expression in E. coli” value was “soluble”. For “GSHMVLTKKKLQDLVREVDPNEQLDEDVEEMLLQIADDFIESVVTAACQLARHRKSSTLEVKDVQLHLERQWNMWI”, the “soluble on expression in E. coli” value was “soluble”. With “MSLDRVDWPHATFSTPVKRIFDTQTTLDFQSSLAIHRIKYHLHKYTTLISHCSDPDPHATASSIAMVNGLMGVLDKLAHLIDETPPLPGPRRYGNLACREWHHKLDERLPQWLQEMLPSEYHEVVPELQYYLGNSFGSSTRLDYGTGHELSFMATVAALDMLGMFPHHRGADVFLLFNKYYTIMRRLILTYTLEPAGSHGVWGLDDHFHLVYILGSSQWQLLDAQAPLQPREILDKSLVREYKDTNFYCQGINFINEVKMGPFEEHSPILYDIAVTVPRWSKVCKGLLKMYSVEVEKKFPVVQHFWFGTGFFPWVNIHHHHHH” the “soluble on expression in E. coli” value was “soluble”. With “MNNDKLQRMVENLSEEKFGRTFRHCAYFNKRLRTTGGRYLLKSHDIEINPKQYEHYGEDAVVKIILHELCHYHLHIAGKGYQHKDQDFKRLSQQVGAPRFCNSIESYQQRANYEYYCTKCHAKYIRIRKVDTNRMRCGHCNGKLRMKRQLK” the “soluble on expression in E. coli” value was “not soluble”. In the case of “MGSDKIHHHHHHMLKICVIGSSGHFRYALEGLDEECSITGIAPGVPEEDLSKLEKAISEMNIKPKKYNNWWEMLEKEKPDILVINTVFSLNGKILLEALERKIHAFVEKPIATTFEDLEKIRSVYQKVRNEVFFTAMFGIRYRPHFLTAKKLVSEGAVGEIRLVNTQKSYKLGQRPDFYKKRETYGGTIPWVGIHAIDWIHWITGKKFLSVYATHSRLHNSGHGELETTALCHFTLENEVFASLSIDYLRPQGAPTHDDDRMRIVGTRGIVEVINERVFLTDEKGHREVPLVEKGQIFEDFLREIRGQGKCMVTPEDSILTTEIALKARLSADTGQIVLI”, the “soluble on expression in E. coli” value is reported as “not soluble”. For “MSQFFYIHPDNPQQRLINQAVEIVRKGGVIVYPTDSGYALGCKIEDKNAMERICRIRQLPDGHNFTLMCRDLSELSTYSFVDNVAFRLMKNNTPGNYTFILKGTKEVPRRLLQEKRKTIGMRVPSNPIAQALLEALGEPMLSTSLMLPGSEFTESDPEEIKDRLEKQVDLIIHGGYLGQKPTTVIDLTDDTPVVVREGVGDVKPFL”, the “soluble on expression in E. coli” value was “soluble”. With “MGSDKIHHHHHHMLEREGIEISLRTIQRDLNQIAQRFPIESNKAVPQGWRWQSDAPIQSLPHMTSSQAVTFMMVEEHLKHLLPPSLLDEMGPWFDLAKRSLSTQNNVRQWINRVRIVPASQPLIPPVVDRAAQQAIYEGLLQDKQIECVYRARVNQGEDKTYILNPLALVQKGAVIYLICTRHDKTEVQTFALHRFKSAKVLESRALHPVNFDIDHYIDSGALGFRVDYNQPTESIQLTLTMTEQTAKTFYESQLSKDQTITPIEENIVEVTATVPFTSQLVWWLRSFGKKLLHIEPVQVHNAVREIEPDSK” the “soluble on expression in E. coli” value was “not soluble”. For “MGSDDQSAGDRIQKGFQINYMILRDADSGKIIWQENKDFSAPDQEHEARVPVKILDMRAVSREINFSTIESMENFRLDQKVLFKGRIMEEWFFEMGFVGANTTNTWQSTIEAAPESQMMPAKVLNGNVTIQTSFYDNETLITKSVVRLYYILEHHHHHH”, the “soluble on expression in E. coli” value was “not soluble”. In the case of “MKRLKNELNALVNRGVDRHLRLAVTGLSRSGKTAFITAMVNQLLNIHAGARLPLLSAVREERLLGVKRIPQRDFGIPRFTYDEGLAQLYGDPPAWPTPTRGVSEIRLALRYKSNDSLLRHFKDTSTLYLEIVDYPGEWLLDLPMLAQDYLSWSRQMTGLLNGQRGEWSAKWRMMCEGLDPLAPADENRLADIAAAWTDYLHHCKQQGLHFIQPGRFVLPGDMAGAPALQFFPWPDVDAWGESKLAQADKHTNAGMLRERFNYYCEKVVKGFYKNHFLRFDRQIVLVDCLQPLNSGPQAFNDMRLALTQLMQSFHYGQRTLFRRLFSPVIDKLLFAATKADHVTIDQHANMVSLLQQLIQDAWQNAAFEGISMDCLGLASVQATTSGIIDVNGEKIPALRGNRLSDGAPLTVYPGEVPARLPGQAFWDKQGFQFEAFRPQVMDVDKPLPHIRLDAALEFLIGDKLR”, the “soluble on expression in E. coli” value is reported as “not soluble”.
